Residues, ends and D or L forms follow the SMILES beside them. *: point of attachment. Doxorubicin(3'-N) = COc1cccc2c1C(=O)c1c(O)c3c(c(O)c1C2=O)C[C@@](O)(C(=O)CO)C[C@@H]3O[C@H]1C[C@H](N*)[C@H](O)[C@H](C)O1; Hexanoyl(6-maleimido) = O=C1C=CC(=O)N1CCCCCC(=O)*
Tests used:
[1] = cited from earlier work
[2] = Tissue-distribution study after i.v. legubicin or doxorubicin; conditions: HT1080 tumor-bearing mice
Method: The mixture was vortexed for 3 min, and then centrifuged at 22,000× g at 4 °C for 10 min. A final analysis was conducted by injecting 5 µL supernatant into a UHPLC-MS/MS system. Mouse plasma samples were treated in the same way as the rat plasma samples, except for protein precipitation, with 200 µL of 5 pmol/mL IS working solution and injection of 2 µL of supernatant for analysis.
Each legubicin administration group corresponded to a sampling time-point (4, 16, 32, 48, 96, 168, and 240 h after administration). […] Blood samples and tumor, heart, and kidney tissues were collected at the sampling time points (4, 16, 32, 48, 96, 168, and 240 h after dosing). In addition, liver, spleen, lung, stomach, small intestine, gonads, brain, skeletal muscle, and skin were also collected at 4, 32, 96, and 240 h post-dose time points in the legubicin administration group. All whole-blood samples were processed according to the same processing steps, described above, for rat whole-blood samples.
The analysis software (Version 1.5.2, AB Sciex, Vaughan, ON, Canada) was applied to data acquisition and quantification. Pharmacokinetic parameters were calculated with WinNonlin Phoenix (v6.4, Pharsight, Mountain View, CA, USA) with the noncompartmental method, and were presented as mean ± SD (%CV). The “Best fit” strategy in the WinNonlin Phoenix was used for the calculation of elimination half-life and the selection of the elimination phase. Graphs were plotted by GraphPad Software (GraphPad Prism 8.0.2; GraphPad Software, Inc., La Jolla, CA, USA).

[3] = acute toxicological assessment in dogs; ref unpublished preclinical studies at the authors' institution; cited from earlier work
[4] = legubicin vs equimolar doxorubicin (9.05 µmol/kg i.v.)

| Compound | AUC ([1]; doses equivalent to 2.5 mg/kg of doxorubicin) | clearance (CL) ([1]; published value) | T/P Ratio of doxorubicin, kidney ([2]; i.v. 9.05 µmol/kg of the labelled drug, n = 6, tissue-to-plasma ratio) | fold decrease in doxorubicin exposure (AUClast) in the heart [2, 4] | fold decrease in doxorubicin exposure (AUClast) in the kidney [2, 4] | fold increase in tumor doxorubicin exposure (AUClast) [2, 4] | MTD relative to doxorubicin [3] | maximum tolerated dose (MTD) [3] |
| --- | --- | --- | --- | --- | --- | --- | --- | --- |
| COc1cccc2c1C(=O)c1c(O)c3c(c(O)c1C2=O)C[C@@](O)(/C(CO)=N/NC(=O)CCCCCN1C(=O)C=CC1=O)C[C@@H]3O[C@H]1C[C@H](N)[C@H](O)[C@H](C)O1 [DOXO-EMCH, doxorubicin (6-maleimidocaproyl) hydrazone] | 536 µM·h | approximately 7.9 mL/h/kg |  |  |  |  |  |  |
| COc1cccc2c1C(=O)c1c(O)c3c(c(O)c1C2=O)C[C@@](O)(C(=O)CO)C[C@@H]3O[C@H]1C[C@H](NC(=O)[C@H](CC(C)C)NC(=O)[C@H](CC(N)=O)NC(=O)[C@H](C)NC(=O)[C@H](C)NC(=O)CCCCCN2C(=O)C=CC2=O)[C@H](O)[C@H](C)O1 [Legubicin] ({Hexanoyl(6-maleimido)}-AANL-{Doxorubicin(3'-N)}) |  |  | 28.9 | 3.3 fold | 3.5 fold | 1.8 fold | tenfold increase compared to doxorubicin | 15 mg/kg |

Reference: article PMC10892419, “UHPLC-MS/MS Assay for Quantification of Legubicin, a Novel Doxorubicin-Based Legumain-Activated Prodrug, and Its Application to Pharmacokinetic and Tissue Distribution Studies” (Molecules, 2024)
